From patent US11110182B2, “Multifunctional RNA nanoparticles and methods for treating cancer and therapeutic resistant cancer” (University of Cincinnati, priority 2016, dated 2021)

Test system: BT474 cells
Test: MTT assay, BT474 cells
Format: cell-based, human
Procedure: FIG. 3A) BT474 cells were incubated with 10 μg/mL control and pRNA-HER2apt-siMED1 nanoparticles for 48 h, and MED1 mRNA level was determined by real-time PCR. FIG. 3B) BT474 cells were incubated directly with (as indicated by -) or transfected with indicated pRNAs using lipofectamine 2000. At 48 h post treatment, MED1 protein levels were determined by western blotting. FIG. 3C) BT474 cells were treated with 10 μg/mL pRNA nanoparticles for 48 h and assayed for cell viability by MTT assay. FIG. 3D) Cells were treated as above and seeded for migration, and FIG. 3E) invasion transwell assays. Scale bar: 50 μm. FIG. 3F) After pRNA treatment for 48 h, the mRNA levels of ERα target genes TFF-1, FIG. 3G) c-Myc, and FIG. 3H) cyclin D1 in BT474 cells were determined by real-time PCR.
FIG. 4A) BT474 cells were treated with pRNA nanoparticles in combination with vehicle or 1 μM 4-hydroxy-tamoxifen (4-OHT) as indicated for 48 h, and assayed for cell viability by MTT assay. […] FIG. 4E) The number of mammospheres was counted, and FIG. 4F) the mammosphere size was calculated. […]
FIG. 9A) BT474 cells were treated with different concentrations of pRNA nanoparticles as indicated for 48 h. After that, MED1 protein level was determined by western blots, and FIG. 9B) the cell viability was determined by MTT assay. […]

B1: pRNA-HER2apt-siMED1: 3-WJ pRNA nanoparticle bearing a HER2-targeting RNA aptamer and two different MED1 siRNAs; strands p1 SEQ ID NO: 3, p2 SEQ ID NO: 4 (nucleic acid)
chain 1: GGACAGUGAAAGUGAGUCAAAGGAUCAAUCAUGGCCAAAGAUGUUACUUUGAGAGCCUU
chain 2: GGCUCUCAAAGUAACAUCUAAGGCCAUGUGUAUGUGGGGGGAGGACGAUGCGGUCUGCUGUGCUUGAUAUGCCCCAGACGACUCGCCCCCCACAUACUUUGUUGAUCCAAUGACUCACUUUCACUGUCCUU
modifications: 2'-F modification; third strand may lack entry; pRNA-HER2apt-siMED1, p1; pRNA-HER2apt-siMED1, p2
cell growth (MTT) (BT474, 48 h, nanoparticles alone): dose-dependently inhibited
effect on tamoxifen inhibition of cell growth (BT474, in combination with 1 μM 4-hydroxy-tamoxifen, 48 h): significantly enhanced the inhibitory effects of tamoxifen
